From patent publication US20240384003A1 (PRECISION BIOLOGICS, published 2024)

Biological target: T1, CEACAM5-D2-312* (human, UniProt P06731 35-311)
T1 sequence (looked up): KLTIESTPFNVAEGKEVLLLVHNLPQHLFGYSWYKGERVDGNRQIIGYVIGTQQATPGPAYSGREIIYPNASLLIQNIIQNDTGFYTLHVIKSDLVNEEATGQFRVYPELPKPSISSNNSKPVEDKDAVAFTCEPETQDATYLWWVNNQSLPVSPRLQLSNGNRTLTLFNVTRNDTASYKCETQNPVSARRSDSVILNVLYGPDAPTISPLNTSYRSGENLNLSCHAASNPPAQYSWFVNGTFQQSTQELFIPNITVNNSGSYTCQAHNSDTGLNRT
Test: ELISA on truncated CEACAM5 from transfected-cell supernatant
Method: Different truncated C-terminus CEACAM6 gene constructs were designed as illustrated in FIG. 13. […] Different truncated C-terminus CEACAM5 gene constructs were designed as illustrated in FIG. 15. The procedure for the expression of the truncated C-terminus constructs was the same as to the method described above. All deletions were transfected into HEK293T cells, harvest the cell pellet and/or supernatant after 48-72 hours. Supernatant binding activity was quantitated by ELISA.

binding result: no binding
B1: NEO-201 (antibody, human IgG1, kappa, V domains shown)
VH: QVQLVQSGAEVKKPGASVKVSCKASGYTFTDYAMHWVRQAPGQRLEWMGLISTYSGDTKYNQNFQGRVTMTVDKSASTAYMELSSLRSEDTAVYYCARGDYSGSRYWFAYWGQGTLVTVSS
VL: DIQMTQSPSSLSASVGDRVTITCQASENIYGALNWYQRKPGKSPKLLIYGASNLATGMPSRFSGSGSGTDYTFTISSLQPEDIATYYCQQVLSSPYTFGGGTKLEIKR
notes: also called H16C3-Abb*
